Reference: patent US9975933B2, “Tumor tissue-penetrating peptide specific to neuropilin and fusion protein having same peptide fused therein” (AJOU UNIVERSITY INDUSTRY-ACADEMIC COOPERATION FOUNDATION, priority 2013, dated 2018)

Key:
[1] = biological target: T1, NRP1-b1b2 (b1b2 domain of neuropilin-1) (Homo sapiens, UniProt O14786); assay: SPR (Biacore2000) binding to b1b2 domain of neuropilin-1; settings: for Association rate ka / Dissociation rate kd / Kd: NRP1-b1b2, SPR; for Kd: read-out: Binding affinity KD
T1 construct: b1b2 domains (273-586) of neuropilin-1
T1 sequence (O14786 273-586): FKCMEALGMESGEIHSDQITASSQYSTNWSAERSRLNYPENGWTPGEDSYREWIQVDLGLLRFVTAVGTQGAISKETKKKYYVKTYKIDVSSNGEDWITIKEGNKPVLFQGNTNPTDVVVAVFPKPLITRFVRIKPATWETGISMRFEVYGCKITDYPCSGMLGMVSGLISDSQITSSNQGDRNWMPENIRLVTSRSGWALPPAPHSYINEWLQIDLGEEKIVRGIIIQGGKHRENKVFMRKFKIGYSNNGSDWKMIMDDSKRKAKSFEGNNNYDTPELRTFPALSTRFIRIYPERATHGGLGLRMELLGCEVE
Method: (§1) Specifically, each b1b2 domain of neuropilin-1 and -2 was diluted with 10 mM Na-acetate buffer (pH 4.0), and fixed onto CMS sensor chips (GE healthcare, USA) in about 1000 response units (RU). […] After bond and dissociation analysis, the regeneration of CMS chip was performed by streaming a buffer (20 Mm NaOH, 1 M NaCl, pH 10.0) at a stream velocity 30 μl/min for 1 minute.

[2] = biological target: T2, NRP2-b1b2 (b1b2 domain of neuropilin-2) (Homo sapiens, UniProt O60462); assay: SPR (Biacore2000) binding to b1b2 domain of neuropilin-2; settings: for Kd: read-out: Binding affinity KD
T2 construct: b1b2 domains (275-595) of neuropilin-2
T2 sequence (O60462 275-595): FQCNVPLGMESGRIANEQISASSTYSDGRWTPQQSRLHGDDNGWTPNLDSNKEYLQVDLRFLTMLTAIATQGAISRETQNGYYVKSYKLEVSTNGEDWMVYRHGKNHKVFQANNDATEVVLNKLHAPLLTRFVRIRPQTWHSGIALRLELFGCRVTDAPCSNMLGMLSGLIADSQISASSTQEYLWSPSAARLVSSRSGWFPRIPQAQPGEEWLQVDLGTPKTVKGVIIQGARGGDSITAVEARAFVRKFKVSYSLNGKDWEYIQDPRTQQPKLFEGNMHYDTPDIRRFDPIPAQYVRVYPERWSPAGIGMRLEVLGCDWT
Method: as §1

VE-cadherin in HUVEC = assay: Western blot of VE-cadherin in HUVEC; assay type: cell-based, human; settings: single peptides and Fc-TPP 1 μM, 10 minutes
Excerpt: During this process, a decrease in vascular endothelial (VE)-cadherin, phosphorylation, etc. of endothelial cells occur. That is, VE-cadherin or epithelial (E)-cadherin involves in adhesion between endothelial cells, while forming the base of adherent junction between endothelial cells and epithelial cells. The change in molecules relieve the density of adherent junction, which results in increasing permeability of blood vessels and improving intracellular permeability.
As an experimental method for indirectly confirming improvement of vascular permeability based thereon, a change in VE-cadherin was confirmed through a Western blot. Specifically, HUVECs were seeded into 6-well plates at a density of 3×10^5 per well, followed by incubation for 24 hours. Thereafter, single peptides and Fc-TPP were treated with 1 μM for 10 minutes to perform a Western blot. Gel subjected to SDS-PAGE was transported into PVDF membrane, a primary antibody (SantaCruz) and an HRP-conjugated secondary antibody (SantaCruz) which recognize VE-cadherin and (3-actin, respectively were used for detection. ImageQuant LAS4000 mini (GE Healthcare) was used for analysis.

HUVEC [3] = assay: Transwell assay of vascular endothelial cell permeability; assay type: cell-based, human; settings: 30 minutes
Method: Based on the above experimental results, as experiments for confirming the improvement of vascular endothelial cell permeability, single peptides and Fc-TPP were treated to conduct Transwell assay.
Specifically, HUVECs were seeded into Transwell plate (Corning) at a density of 5×10^4 per well in a upper chamber using Endothelial Growth Medium, PromoCell (EGM) medium, followed by incubation at 37° C. for 3 days under 5% CO2 condition. […] Thereafter, Dextran-FITC (Sigma) 50 μg was put into the upper chamber and the medium of the lower chamber was sampled to measure its fluorescence after 30 minutes, using the principle that a fluorescent substance is observed in the lower chamber when the permeability in HUVECs was improved.

A431 tumor = assay: IHC of Fc-TPP infiltration in A431 tumor tissue; assay type: in vivo, Balb/c nude mice; settings: A431 xenograft, 5 mg/kg intravenously, 3 hours
Method: 3 hours after injection, tumors were extracted from mice to conduct immunohistochemistry experiment. The extracted tumors were cut into 20 μm thick using a frozen section method, and stained with a primary antibody, CD31 antibody (BD Pharmingen), and a TRITC (red fluorescence)-conjugated secondary antibody. Further, in order to observe Fc-TPP distributed in the tissues, FITC (green fluorescence)-conjugated antibodies recognizing Fc were used.

E-cadherin in FaDu = assay: Western blot of E-cadherin in FaDu; assay type: cell-based, human
Method: In order to confirm the effect of TPP on cancer cells, a change in E-cadherin was analyzed in human head and neck cancer cell line FaDu, under the same conditions as above experiments through Western blot.

[4] = test system: neuropilin-1 and -2 expressed on cell surface (SK-OV-3); assay: FACS binding to neuropilin-1 and -2 expressed on cell surface; assay type: cell-based, human
Method: Specifically, after incubating human ovarian cancer cell line (SK-OV-3) under conditions of 5% CO2 and 37° C., 1×10^5 cells per sample were resuspended in a PBS buffer supplemented with 2% BSA and transferred to a FACS tube for conducting experiments.
Then, the mixture was reacted with cell line SK-OV-3 at 4° C. for 1 hour in the same manner and proteins were stained for conducting FACS analysis. […] This means that Fc-TPP binds specifically to neuropilin-1 and -2.
This means that the binding of Fc-TPP to neuropilin-1 and -2 is specific similar to the original ligands.

PPC-1 cells = assay: Confocal microscopy of intracellular penetration and co-localization with neuropilin; assay type: cell-based, human; settings: 1 μM, 37° C., 1 hour
Method: In order to confirm whether Fc-TPP has intracellular penetrating capacity by neuropilin-1 and -2, like other neuropilin ligands having intracellular penetrating capacity, confocal microscopy was used to observe intracellular penetration and co-localization with neuropilin-1 and -2.
Specifically, 5×10^4 PPC-1 cells were plated into 24-well plates containing DMEM medium 0.5 ml supplemented with 10% FBS per well, followed by incubation at 37° C. for 24 hours at 5% CO2. When the cells were stabilized, each well was washed with PBS 0.5 ml. […] After the medium was removed and each well was washed with PBS, Fc-TPP was stained with an antibody (Sigma) which specifically recognizes the FITC (green fluorescence)-conjugated Fc, and neuropilin-1 and -2 was stained with a primary antibody (SantaCruz) which recognizes each of them and with a TRITC (red fluorescence)-conjugated secondary antibody (Sigma). Nuclei were stained (blue fluorescence) with DAPI and observed under confocal microscopy.

FaDu tumor = assay: In vivo Evans Blue assay of vascular permeability; design: species or system Balb/c nude mice; settings: FaDu xenograft, 400 ng, 40 minutes
Method: Additionally, in order to confirm the improvement of vascular permeability in vivo, Evans Blue assay was conducted. […] 40 minutes after injection, the mice were perfused through the heart with PBS containing 1% BSA, and tumor tissues were extracted (FIG. 11d). Then, the extracted tissues were put into 1 ml of […] (Sigma) and reacted at 37° C. overnight under mild shaking condition. Thereafter, the supernatant was obtained from centrifugation to measure the absorbance (600 nm), and the amount that Evans Blue penetrated was quantified.

HUVEC [5] = assay: Tube formation assay in HUVEC; assay type: cell-based, human; settings: VEGF165A 20 ng/ml, 8 hours
Method: As an experiment confirming angiogenesis in vitro based thereon, tube formation assay was conducted. As an experimental method, 50 μl of ECMatrix was injected into 96-well plates and polymerized at 37° C. for 2 hours. […] The incubated cells were observed by a microscope to obtain images.

[6] = single peptides and Fc-TPP 1 μM

difference in binding affinity between GAGA linker and (GGGGS)3 linker clones ([1]; Fc-4A22 compared with Fc-15A22, b1b2 of neuropilin-1 and -2) | Association rate ka [1] | Dissociation rate kd [1] | Kd [1] [µM] | Association rate ka [2] | Dissociation rate kd [2] | Kd [2] [µM] | Substance | change in VE-cadherin (Western blot) (VE-cadherin in HUVEC) | permeability of HUVEC (Transwell, Dextran-FITC) (HUVEC [3]; [6]) | infiltration into tumor tissue (IHC) (A431 tumor) | change in E-cadherin (Western blot) (E-cadherin in FaDu) | cell binding capacity after reaction in advance with b1b2 domains of neuropilin-1 and -2 ([4]; 1 μM protein, 2 μM b1b2 domains, SK-OV-3) | cell binding capacity when mixed with parent ligand Sema3A or Sema3F ([4]; Sema3A (Fc-15A22P) / Sema3F (Fc-15F22P) 100 μg/ml) | cell binding capacity when mixed with VEGF165A ([4]; VEGF165A 1 μg/ml) | co-localization with neuropilin-1 and -2 (PPC-1 cells) | intracellular penetration (confocal microscopy) (PPC-1 cells) | permeability of HUVEC (Transwell, Dextran-FITC) (HUVEC [3]; control ligands about 1.3 nM) | vascular permeability (Evans Blue) (FaDu tumor) | tube formation of HUVEC (HUVEC [5])
about 10 times | 4.86 ± 0.98 × 10^3 M^−1s^−1 | 2.95 ± 0.04 × 10^−2 s^−1 | 6.06 | 3.94 ± 0.42 × 10^3 M^−1s^−1 | 3.87 ± 0.09 × 10^−2 s^−1 | 9.8 | Fc-15A22: Human IgG1 Fc with TPP 15A22 (SEQ ID NO: 6) fused to its C-terminus (GGGGSGGGGSGGGGSHTPGNSNKWKHLQENKKGRNRR) | VE-cadherin was decreased | permeability of HUVEC was improved | infiltrated into tumor cells | induced a decrease in E-cadherin |  |  |  |  |  |  |  | 
 | 1.73 ± 0.26 × 10^4 M^−1s^−1 | 1.38 ± 0.12 × 10^−3 s^−1 | 0.0797 | 1.34 ± 0.24 × 10^4 M^−1s^−1 | 1.23 ± 0.16 × 10^−3 s^−1 | 0.0924 | Fc-15F22p: Human IgG1 Fc with TPP 15F22p (SEQ ID NO: 10) fused to its C-terminus (GGGGSGGGGSGGGGSREAPGAPRSPEPQDQKKPRPRR) | induced a decrease in VE-cadherin | improvement of vascular permeability was induced |  | E-cadherin was decreased | remarkably reduced | reduced | reduced | co-localized with neuropilin-1 and -2 | penetrated into cells |  |  | 
 | 9.75 ± 0.53 × 10^5 M^−1s^−1 | 3.42 ± 0.29 × 10^−3 s^−1 |  | 1.17 ± 0.12 × 10^5 M^−1s^−1 | 3.73 ± 0.19 × 10^−3 s^−1 |  | VEGF165: Vascular endothelial cell growth factor-A isoform, neuropilin ligand, control group [reference compound] | a decrease in VE-cadherin was observed |  |  |  |  |  |  |  |  | permeability of HUVEC was improved | increased vascular permeability | increased tube formation
